# Changes are numbered by the printed parent chain.
# B1: 29B03 scFv (scFv, part only; not given: scFv linker, domain order, c-myc tag, V domains shown, not shown: another chain or arm of the molecule; small tags and cut ends)
# VH: QLQLVESGGGLVQPGGSLRLSCAASGFTFGTYSMRWVRQVPRKALEWVSSISTDGGGTAYRDSVKGRFTISRDNAKNTLYLQMNNLKPEDTAIYYCVIAGYSDWGQGTQVTVSS
# VL: DVVLTQTPGSLSVVPGESASISCKAGQNLVHPDGKTYLYWLLQKPGQSPQRLIYQVSNRDSGVPDRFTGSGSGTDFTLKISGVKVEDAGVYYCAQGTYWPKTFGQGTKLEIK
# B2: 5E5 WT scFv (scFv, part only; not given: scFv linker, domain order, c-myc tag, V domains shown, not shown: another chain or arm of the molecule; small tags and cut ends)
# VH: B1 VH
# VL: ATMLTQSPGSLSVVPGESASISCKTSQGLVHSDGKTYFYWFLQKPGQSPQQLIYQVSNRASGVPDRFTGSGSGTDFTLKISGVKAEDAGVYYCAQGTYYPHTFGSGTRLEIK
# B3: 29A05 scFv (scFv, part only; not given: scFv linker, domain order, c-myc tag, V domains shown, not shown: another chain or arm of the molecule; small tags and cut ends)
# VH: B1 VH
# VL: B1 VL with G26S, N28S, H31Y, P32S
# B4: 29G02 scFv (scFv, part only; not given: scFv linker, domain order, c-myc tag, V domains shown, not shown: another chain or arm of the molecule; small tags and cut ends)
# VH: B1 VH
# VL: DVVLTQTPGSLSVVPGESASISCKATQSLVHIDGKTYLYWLLQKPGQSPQRLIYQVSTRDSGVPDRFTGAGSGAEFTLKISGVKAEDAGVYYCAQDTYSTKTFGQGTKLEIK
# B5: 29F10 scFv (scFv, part only; not given: scFv linker, domain order, c-myc tag, V domains shown, not shown: another chain or arm of the molecule; large carriers; small tags and cut ends)
# VH: B1 VH
# VL: B1 VL with S18P, I21V, G26S, N28S, D60G, K79E, V85A
# B6: 30D10 scFv (scFv, part only; not given: scFv linker, domain order, c-myc tag, V domains shown, not shown: another chain or arm of the molecule; small tags and cut ends)
# VH: B1 VH
# VL: DVVLTQTPGSLSVVPGESASISCTASQSLRHSDGRTYLYWLRQKPGQSPQRLIKRVSTRDPGVPDRFTGSGSGTDFTLKISGVRAEDAGVYYCAQGTYYPLTFGQGTKVELK
# B7: 29G11 scFv (scFv, part only; not given: scFv linker, domain order, c-myc tag, V domains shown, not shown: another chain or arm of the molecule; small tags and cut ends)
# VH: B1 VH
# VL: B4 VL with E17G, T26S, H31Y, I32S, L42R, T58N, D60P, A70S, A74T, E75D
# B8: 29A06 scFv (scFv, part only; not given: scFv linker, domain order, c-myc tag, V domains shown, not shown: another chain or arm of the molecule; small tags and cut ends)
# VH: B1 VH
# VL: B1 VL with G26S, P32S, D33N, D60G, G62E, V85A
# B9: 30D10 IgG (antibody, V domains shown)
# VH: B1 VH
# VL: B6 VL
# Target: T1, native human ApoC3 (human, UniProt P02656 21-99, biotinylated in the captured-antigen assays (Tables 6 and 8); sites not stated)
# T1 construct: also called nhuApoC3; native huApoC3
# T1 sequence (P02656 21-99): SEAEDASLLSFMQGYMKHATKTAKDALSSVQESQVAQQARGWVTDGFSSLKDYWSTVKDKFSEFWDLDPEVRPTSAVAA
# Assay: SPR, biotinylated antigen captured on SA chip, scFv periplasmic extract injected, pH 7.4
Binder,R0 [RU],koff [s⁻¹]
B1,930,0.000572
B2,854,0.000964
B3,545,0.0069
B4,833,0.00435
B5,808,0.00144
B6,695,0.00123
B7,809,0.00633
B8,1010,0.00162

# Target: T2, recombinant cynomolgus ApoC3 (cynomolgus monkey, UniProt P18659 21-99, biotinylated in the captured-antigen assays (Tables 6 and 8); sites not stated)
# T2 construct: No cleavage site is stated, so none is applied; also called rcyApoC3; bio-rcyApoC3
# T2 sequence (P18659 21-99 limits assumed): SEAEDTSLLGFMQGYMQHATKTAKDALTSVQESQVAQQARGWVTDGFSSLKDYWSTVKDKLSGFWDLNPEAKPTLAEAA
# Assay: as above
Binder,R0 [RU],koff [s⁻¹]
B1,122,0.0418
B2,–,0.0391
B3,145,0.0146
B4,102,0.00721
B5,52,0.059
B6,–,0.0436
B7,92.7,0.00714
B8,125,0.0406

# Target: T1, native human ApoC3
# Assay: SPR, biotinylated antigen captured on streptavidin chip, IgG as analyte, pH 7.4
Binder,Kd [nM],koff [s⁻¹],kon [M⁻¹ s⁻¹]
B9,0.1,0.000126,1.29e+06

# Target: T1, native human ApoC3
# Assay: SPR, antigen immobilized on CM5 chip, IgG as analyte, pH 7.4
Binder,Kd [nM],koff [s⁻¹],kon [M⁻¹ s⁻¹]
B9,0.15,0.000231,1.5e+06

# Target: T2, recombinant cynomolgus ApoC3
# Assay: as above
row,Binder,binding result
1,B9,no binding
